This is an account of results in the DeepSol protein solubility set.

A short description of this series: soluble on expression in E. coli; label from the status in PepcDB or PDB records.
Take “MCVHTRKPDGLHPKPVSHCPVIDTGQSEWRSFTFTTICMGFRPRQAYRQPSPIANETENTMSNSNIQQEAQDIHDQLPESVDASPEDIEERLTTLVDDYRVPLDEAQRSVVSTYLSDSDVDRDDVSSENENQQVDLEEITEAEQWVDITAKVADLWEPRSDSIAQVGLLGDETGTIKFTKWAKSDLEALTEGQVYRLGNVVTDEYQGQYSVKLNRTTTIEALDQDIEVGDDTTDAEGALVDIQSGSGLIKRCPEDDCTRVLQNGRCSEHGEGEGEFDLRIKGVIDNGDTVQEVIFDKEATEQVADITLAQAQEMAMDALDTSVVADEIREVTLGRYYRVQGPELGRYLLVNEFEQLAEMHDPEQLLITARSI”: the “soluble on expression in E. coli” value was “soluble”.
On to “DPSVTHVLHQLCDILANNYAFSERIPTLLQHLPNLDYSTVISEEDIAAKLNYELQSLTEDPRLVLKSKTDTLVMPGDSIQAENIPEDEAMLQALVNTVFKVSILPGNIGYLRFDQFADVSVIAKLAPFIVNTVWEPITITENLIIDLRYNVGGSSTAVPLLLSYFLDPETKIHLFTLHNRQQNSTDEVYSHPKVLGKPYGSKKGVYVLTSHQTATAAEEFAYLMQSLSRATIIGEITSGNLMHSKVFPFGDTQLSVTVPIINFIDSNGDYWLGGGVVPDAIVLADEALDKAKEIIAFHPPLA”, for which the “soluble on expression in E. coli” value is listed as “soluble”.
As to “HWCNIAGWPDFDTFLATMDHKHRKNIRQERAKVARSGVRIQSIHGDEATPIELKAMHHFYVNTFHQYGNAPALTLPFLTHLAKTIPRQLVLFMATLNGKLIGGSLCLRSAKTLYGRHWGGAALPGLHFETCYYQGIDYCLREGLTRFEPGAQGKHKIARG”, the “soluble on expression in E. coli” value is on record as “not soluble”.
“AIASIPFSNTHYRIPQGFGNLLEGLTREILREQPDNIPAFAAAYFESLLEKREKTNFDPAEWGSKVEDRFYNNHAFEEQEPPEKSDPKQEESQISGKEEETSVTILDSSEEDKEKEEVAAVKIQAAFRGHIAREEAKKMKTNSLQNEEKEENK”: the “soluble on expression in E. coli” value is listed as “soluble”.
For “MGSDKIHHHHHHMVIDSIRSSSTGPRDAPGKRLAVGISLFARDGQAIWENGIHQNIAFLAMMLKQSDRIGPVYFLNGGDAKALPAGLDLGGLDVPLVQPRDVSHALDVVIEMGAQLPVDWLKHMKALGKKLVVCFVGHTYSGLTETPMFNRPSGHIFNGGPFDEVWILPKSEKIDAPLLRTLTRAPVHVVPHIWSPYFIERRARELEAAGLRFGYAPGRAKWRLSILEPNISVVKTCHYPMLAADEFHRAQPDAVEHLFVVNSLHMKEHPTFVHFANSLDLVREHKATFEPRIDLPSFLAQHGDAVISHQWENPQNYLYYDVLYGGYPLVHNSPMLGDAGYYYPEFDSAAGGRALQHAWRHHDAHLDDYRRHADALLQAVSIDNRRNLDAYVARLFA”, the “soluble on expression in E. coli” value is given as “not soluble”.
As to “MQYIKIHALDNVAVALADLAEGTEVSVDNQTVTLRQDVARGHKFALTDIAKGANVIKYGLPIGYALADIAAGEHVHAHNTRTNLSDLDQYRYQPDFQDLPAQAADREVQIYRRANGDVGVRNELWILPTVGCVNGIARQIQNRFLKETNNAEGTDGVFLFSHTYGCSQLGDDHINTRTMLQNMVRHPNAGAVLVIGLGCENNQVAAFRETLGDIDPERVHFMICQQQDDEIEAGIAHLHQLYSVMRNDKREPGKLSELKFGLECGGSDGLSGITANPMLGRFSDYVIANGGTTVLTEVPEMFGAEQLLMDHCRDEATFEKLVTMVNDFKQYFIAHDQPIYENPSPGNKAGGITTLEDKSLGCTQKAGSSVVVDVLRYGERLKTPGLNLLSAPGNDAVATSALAGAGCHMVLFSTGRGTPYGGFVPTVKIATNSELAAKKKHWIDFDAGQLIHGKAMPQLLEEFIDTIVEFANGKQTCNERNDFRELAIFKSGVTL”, the “soluble on expression in E. coli” value is given as “not soluble”.
“MSLKKYIITLLFCTLFCHLGIAQGLKSVSILGDSYSTFEGYVQPDTNFVWYLKTPPKGRKTDMVSVRNTWWHQFIKENNYRLCVNNSFSGATICHTGYRSEDYSDRSFITRMKALGCPDIIFIFGATNDYWAKSPLGEYKYADWSKKDLYSFRPAMAYMLDTMIDYYPNVEIYFLLNDGLGNEITESVRTICKHYQIDCIELKELDKMSGHPSVKGMKQISEQVKAYMNSRQNEGHHHHHH”: the “soluble on expression in E. coli” value is “not soluble”.
On to “MPRPQGTVAAAAATTSMSSTRARKDPLRRIGNGNAVAGGLDMTRVGILSDRELAFFQRLAYTGSQAAEQQQRDARKQEEDRRRELSKTRTAGWTDTIEARHDQFVQAQQDAKDAAEARQKVLDELYAKQLEEEHKAVIARQALEHLKEDPRGRHLRSMNMLHEALKARKEQVAYKQMLQREDEAQNANAQREFQLQRWGDQAEELHKKLKARQRNVEEKNANLETVLFQIDQRRQERAVQQQDRKHIDQEAAEERAEQQEEAAQRRARELENGAYNKAHSRPALTRSEKLQTRVAENVKDEAALRAEEEKVDSIKRWVMERQQNKLAAFEERKKAGLRRYLDEAKQENLPTYRTQDVFEKGESFLQKLYDGDVKQQEKQHEYRLEMEQQRLEMEEQKAAEARGDVVGSGDGADGSTSRRHAAATTAAGFLNKAEEMAYAEEMRRYPEQLRAKEAEEAAARRAEALRIERIQKLQAAEKRENARRAVEARREEFRQQQSQQEADDARYRAYIDSVVPADMDPILYRKATQLH”, for which the “soluble on expression in E. coli” value is recorded as “soluble”.
As for “MNEVKLSKRLEEVVREIPVGSTVADIGSDHAYLPCYTIINNIATKAVAGEVVDGPFRSAQATVAESGLQDKVDVRKGNGLAVIAPGEVDVITVAGMGGALIRDILESGKEKLEGVTRLILQPNIAAHHIREWFIENGWELIHEKIVKEDGKIYEILVGERGNVAAPYSENKQAELFMGPFLITEKSEAFVEKWEGELKNFQNILKQLERAADSEETKAKRGEVEAKMKMIGEVLS”, the “soluble on expression in E. coli” value is given as “not soluble”.
As to “MAKVLVLNASYEPLNITHWQRAVVLLLKDKAEALENNGKLIYANFPLPSVIRLRQYIKVPYKEIPLTRRNVLERDRHTCQYCNYKGEQLTLDHVIPRSRGGGDSWENLVTACVRCNIKKGNRTPREAQMSLNYTPRRPYSSLLFEIIKHTRNDRNHEWRKYVIGILEHHHHHH”, the “soluble on expression in E. coli” value was “not soluble”.
For the sequence “MKEKEHQSIEWKESWQDEYLKWICGYANAYGGTIYIGTDDDGNVVGIDNARDLLERIPNKITDTMGIIVDVNLLYKGELEYLQIIVDKYPSLISFRGKYYYRSGSTMREITGKELERALLKTQGRTWDGVPLPKLTVADLKQDAIQLFKDKAVKRGRLTKEEVSVEDTILMDNLHLIDEDGYLIRAAMLAFYKDPEKWVTGSYIKIGYFGKSDSDLVYQDEVHGPLIEQVDKTVDLVYTKYMKALIDYEGVQRIEQFMFHKDAFREILLNAVVHKDYSSCNPIQISVYEDKIYIWNDGEMPPNLDSTDKLFMKHSSKPYNPKLANVFFKSGMIEAWGRGFEKIREACALYDGPLPEYEINEAGIMVLCKACDKYLGLLRNDGQHHGQCDQEGDHDEEQDIMRQIIAFCMEPKTASEIMQKFNLERSYFRRHYLNKMLKTGKLQRTEPDKPKSKNQKYYS”, the “soluble on expression in E. coli” value is recorded as “not soluble”.
On to “MGSDKIHHHHHHMQRARAEQRGRDLVIHLDRPLNQDHLETVSGGQGEFYVDFEVADPRKASVQQRRLFFALLHDIETYFVVPSEFLKSMFYTQYEFYTAGKSISLSDATESSVSDANTLLDLVIDFMFEWRVPFKKGYELLPKEEQYFIYQCCRHRVCIVCGEHADIHHVDVVGRTNRNKIDHSQRHVMALCRAHHSEIESIGSAKFAAKYHVPVTGIKLKIEDLQKLGIRGNYGGD”, for which the “soluble on expression in E. coli” value is on record as “not soluble”.
On to “MGSDKIHHHHHHMVMDHDIYFGYQRPRPTEYVQFANFDSRQLNLYLAGRIANNPPTKEVTESIGYMDGIIDFSDILGRRIFDNRTIEYQFKALNINYHDRKLLEQKCKRLLLIPMRQPIYDSHDLPFYWFGKASSVTANDDHVNNVLEITVQFNVSPYALRKGQFDDIWDNFSLETGYAQFTKYSVKGTKKISLYNDSDLKSRLKVICQNDMTINGKYKYTKNYQDNPNFRLEPGINDLTVNGNGDIEFQWESEVML”, for which the “soluble on expression in E. coli” value is recorded as “not soluble”.
As to “MSLAVVRTINGDVSPDTLGVVNAHDHLIRVGAGEVYIDPDHLLDDVDKAAQEATYFVEASKSWAAGGTIIDMCPASSGRGVLKTLQVVEKVPGLQVVQATGFHQQKVYLEWRQSWVNQYTVTQIADLLIADIVEGIDRFDYMGPIVERTNVKAGVIKWATAYGKITEWEKKSGQAVAIASKETGCPINTHVTAGTCGPEQARFLVDQGVDPAKIAIGHMQRNWDPWVHEQICKLGCYVELDGTNRIKYVPDNTRVNLVKTLGEKGYGKQILLGTDSGKASYQKVYGSVSGIDYDPAVFCPRLVEDEGVDRDYVNDLLINNAATFFGFEPLAEGHHHHHH”, the “soluble on expression in E. coli” value is reported as “not soluble”.
Regarding “MGSDKIHHHHHHMSLFDHKITELKQLIHKKEIKISDLVDESYKRIQAVDDKVQAFLALDEERARAYAKELDEAVDGRSEHGLLFGMPIGVKDNIVTKGLRTTCSSKILENFDPIYDATVVQRLQDAEAVTIGKLNMDEFAMGSSTENSAYKLTKNPWNLDTVPGGSSGGSAAAVAAGEVPFSLGSDTGGSIRQPASFCGVVGLKPTYGRVSRYGLVAFASSLDQIGPITRTVEDNAFLLQAISGVDKMDSTSANVDVPDFLSSLTGDIKGLKIAVPKEYLGEGVGKEARESVLAALKVLEGLGATWEEVSLPHSKYALATYYLLSSSEASANLARFDGIRYGYRTDNADNLIDLYKQTRAEGFGNEVKRRIMLGTFALSSGYYDAYYKKAQKVRTLIKKDFEDVFEKYDVIVGPTTPTPAFKIGENTKDPLTMYANDILTIPVNLAGVPGISVPCGLADGLPLGLQIIGKHFDESTVYRVAHAFEQATDHHKAKPEL”, the “soluble on expression in E. coli” value is given as “not soluble”.
With “MSYTTDEVHFLLDLDAEITAVAGAITRDHAMTKATAVKDAATFHKHFGANGRAAMELCASRTSAQGKLPHDWLMCHDSSQQATPLTVAQQRAHRIHRVCGSEAIVHDVTCSIGTEGAAITDLGMAYHGSDLDMSRLLMARHNVPTGLFFQADALKRASTSSDVIIADPARRAEGRRITKPDQLIPPLPQLVDHWRIATTTAAPMAIKCAPGLDFQEWDGLVSVVSVAGGVKEACLYTPELSEGLTREAIMIGPDQSVDVLNDRHGGEVPAGDPGTFIIDPDGAVVRAGLVQHYAAREQLWMLDEHIAYLTGDRIPQGRSGFRFIEMVGLKQLKSALVAHDAGSLEILVRGVDVDPDQLRKKLKLKGNTPMAVICTRIGRKGVALICHAREHSQT”, the “soluble on expression in E. coli” value is recorded as “not soluble”.
For “MKKILLSAAVLLLSLGTYAQNNPTSLPTDIRIKKVVYRENDVIPVHGIPFTTTQIQFAKQERVLDIEGGDTTAWMVTYHPQLENMIFIKPTMFDSKTNMTVITNQRAYYFSLTSAKKLEQEPGKKTYALKFEYPQPQPVNTKNTTPNKTVHPKVVNTAYRFSGSPQLVPRHVFDDGKFTYFELSAQGSVPAIFAVDDQSGKESTVNTRREGKFIVVQRLAPQFTLRQGGLTASVFNTPEINRIRANRRPK”, the “soluble on expression in E. coli” value is given as “not soluble”.
As for “MNSITCPKCGTECDKLFDSVCRDCFFETFKLIDLPLVLHVKICSSCGAYFHRSRWENIGNLEEVVLKAVENALFIHDEAGDVELYLEPKEITPYIYMVRAEVDAIVRGEPVHAEAATEVRVQRIACDMCSRESGGYFEAIIQIRAAGRFPTEEEKRRCSAIAREAMESMKKKGDRLAFISDYQEQKEGIDLYMGSMNASRQVCRMIISELGGSFAESPTLVGMKDGKNLYRITFAMRLPEFRPGDVIRFRGRIIQIRSSGKKVNGISLEDGSRFLSTPEELKGAEKIANIGDAVLTVLVSIEENAILVLDPETYETVAIKKPMFFNAEAGSEIPVLKTEYGIFALAHTDIPQEKLEHHHHHH”, the entry is “soluble”.
Turning to “LTVLELESQIDVLSRIQFVSRFGSNLVHIEGVKGSGKSWLAQRYLEKWCDDADQVLLMCHPNQSIQQQRGIILKQVVRDPLFNESDSVVDSVGRMLAGEKCNLVLAIDDAHLLSSELLSELWLLVQKAQSAPNWQINILLFAEKGKLTQTLSQMSYGQDNKPVDIDINP”, the “soluble on expression in E. coli” value is “soluble”.
